From publication PMC11217292

Target: OSM-3 H207Q mutant, EGFP tagged (C. elegans) (UniProt P46873)
Sequence of UniProt P46873 (P46873 whole entry H207Q): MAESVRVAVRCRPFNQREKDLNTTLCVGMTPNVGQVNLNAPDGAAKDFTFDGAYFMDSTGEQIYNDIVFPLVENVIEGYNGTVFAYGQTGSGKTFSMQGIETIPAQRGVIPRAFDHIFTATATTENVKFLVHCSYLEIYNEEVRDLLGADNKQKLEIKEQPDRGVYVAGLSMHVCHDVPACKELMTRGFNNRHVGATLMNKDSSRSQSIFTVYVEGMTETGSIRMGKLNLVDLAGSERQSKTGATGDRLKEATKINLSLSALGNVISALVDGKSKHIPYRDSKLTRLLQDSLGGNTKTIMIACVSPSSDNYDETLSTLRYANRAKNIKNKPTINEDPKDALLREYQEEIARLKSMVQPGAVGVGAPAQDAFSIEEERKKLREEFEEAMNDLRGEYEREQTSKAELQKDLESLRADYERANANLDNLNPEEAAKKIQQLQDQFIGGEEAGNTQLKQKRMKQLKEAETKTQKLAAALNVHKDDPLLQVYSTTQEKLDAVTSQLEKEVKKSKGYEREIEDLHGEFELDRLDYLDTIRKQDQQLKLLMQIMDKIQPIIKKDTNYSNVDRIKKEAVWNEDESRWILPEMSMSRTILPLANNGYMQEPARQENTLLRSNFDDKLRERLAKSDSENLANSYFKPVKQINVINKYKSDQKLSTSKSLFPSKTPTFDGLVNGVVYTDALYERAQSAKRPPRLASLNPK

microtubules (complex) gave a microtubule-stimulated ATPase activity relative to wild-type OSM-3 (set to 100%) of 18%.
